Results reported in paper PMC6710073 (Nature chemical biology, 2019).
Read-outs that look alike come from different tables or passages of the source. Non-standard residues stand in square brackets, D forms with d. No end group written: not given here. Cba = N[C@@H](CC1CCC1)C(=O)O

What was measured:
Test in all cases: BLI
SUMO-25–109MDM2 [1] = target: T1, SUMO-25–109MDM2 (UniProt Q00987 25-109)
SUMO-25–109MDM2 [2] = target: T1, SUMO-25–109MDM2; remark: listed apart in the source
SUMO-25–109MDM2 [3] = target: T1, SUMO-25–109MDM2; remark: listed apart in the source

B1: biotinylated 118: modified 15–29 p53 peptide with an N-terminal Gly-Ser linker (peptide)
peptide: GSGSGSGSGSGSSQETFSDLWKLLPEN
modifications: not fully specified; D-biotin on its N terminus
binding result (SUMO-25–109MDM2 [1]): binds

B2: compound 37 (peptide)
chain: LTFEHY[hexylalanine]AQ[Cba]TSK
Kd (SUMO-25–109MDM2 [2]): 0.5 nM

B3: compound 6 (peptide)
peptide: LTFEHYWAQFTSK
modifications: also: biotinylated, position not given here
binding result (SUMO-25–109MDM2 [3]): binds
